Source: patent US20190127434

B1: Recombinant Human UCH-L5/UCH37 (protein)
chain: MTGNAGEWCLMESDPGVFTELIKGFGCRGAQVEEIWSLEPENFEKLKPVHGLIFLFKWQPGEEPAGSVVQDSRLDTIFFAKQVINNACATQAIVSVLLNCTHQDVHLGETLSEFKEFSQSFDAAMKGLALSNSDVIRQVHNSFARQQMFEFDTKTSAKEEDAFHFVSYVPVNGRLYELDGLREGPIDLGACNQDDWISAVRPVIEKRIQKYSEGEIRFNLMAIVSDRKMIYEQKIAELQRQLAEEEPMDTDQGNSMLSAIQSEVAKNQMLIEEEVQKLKRYKIENIRRKHNYLPFIMELLKTLAEHQQLIPLVEKAKEKQNAKKAQETK
B2: UCH-L3, human recombinant (protein)
chain: MEGQRWLPLEANPEVTNQFLKQLGLHPNWQFVDVYGMDPELLSMVPRPVCAVLLLFPITEKYEVFRTEEEEKIKSQGQDVTSSVYFMKQTISNACGTIGLIHAIANNKDKMHFESGSTLKKFLEESVSMSPEERARYLENYDAIRVTHETSAHEGQTEAPSIDEKVDLHFIALVHVDGHLYELDGRKPFPINHGETSDETLLEDAIEVCKKFMERDPDELRFNAIALSAA
B3: Recombinant Human USP2 Catalytic Domain (protein)
chain: NSKSAQGLAGLRNLGNTCFMNSILQCLSNTRELRDYCLQRLYMRDLHHGSNAHTALVEEFAKLIQTIWTSSPNDVVSPSEFKTQIQRYAPRFVGYNQQDAQEFLRFLLDGLHNEVNRVTLRPKSNPENLDHLPDDEKGRQMWRKYLEREDSRIGDLFVGQLKSSLTCTDCGYCSTVFDPFWDLSLPIAKRGYPEVTLMDCMRLFTKEDVLDGDEKPTCCRCRGRKRCIKKFSIQRFPKILVLHLKRFSESRIRTSKLTTFVNFPLRDLDLREFASENTNHAVYNLYAVSNHSGTTMGGHYTAYCRSPGTGEWHTFNDSSVTPMSSSQVRTSDAYLLFYELASPPSRM

These proteins were tested against K6UbKMRC011.

Row | Protein | cleavage by ubiquitin cleavage enzymes, SDS-PAGE analysis (10 mg/L enzyme, 37 C, 12 hours)
1 | B1 | the refolded K6UbKMRC011 was cleaved by the ubiquitin cleavage enzymes shown in Table 2 and correctly separated into K6Ub and KMRC011
2 | B2 | the refolded K6UbKMRC011 was cleaved by the ubiquitin cleavage enzymes shown in Table 2 and correctly separated into K6Ub and KMRC011
3 | B3 | the refolded K6UbKMRC011 was cleaved by the ubiquitin cleavage enzymes shown in Table 2 and correctly separated into K6Ub and KMRC011
